The target in test [1] is F-actin (rabbit skeletal muscle actin, polymerized) (rabbit) (UniProt P68135). Description: co-sedimentation; high-speed centrifugation (HSC, 1 h, 40,000 rpm, 20 °C); 3.0 µM F-actin pre-incubated with 0.3 µM fascin for 20 min, titrated with Tpm2 isoforms 0-3.0 µM; 5 mM Tris, 100 mM NaCl, 2 mM MgCl2, 1 mM DTT, pH 7.5; Hill fit, apparent Kapp; fascin band in the pellets also quantified.

For test [2] the target is unchanged. In words: co-sedimentation; high-speed centrifugation (HSC); 3.0 µM F-actin, alone or pre-incubated 15 min with 2.0 µM Tpm2 isoform, incubated with fascin 0-1.1 µM for 1 h at RT; 5 mM Tris-HCl, 100 mM NaCl, 2 mM MgCl2, 1 mM DTT, pH 7.5; Hill fit, apparent Kapp.
In test [3] the target is F-actin saturated with Tpm2.1 (rabbit | human) (UniProt P68135). The test is described as above.

Regarding “Tpm2.4, recombinant N-terminally acetylated human tropomyosin isoform encoded by TPM2 (natural protein)”, the percent reduction of fascin bound to F-actin in test [1] came to 30%.

Turning to “recombinant mouse fascin-1 with GPLGS N-terminal extension (GST tag cleaved) (natural protein)”, the Ka came to 1.15e+07 M⁻¹ in test [2] and 8e+06 M⁻¹ in test [3].
